Experimental data: paper PMC5498027
Positions count from the first letter of the chain named. Names and notes keep the numbering of the source. Each block holds one binder with its values, some of them ahead of it.

How the values were obtained:
[1] = target: T1, taxol-stabilized microtubules polymerized from bovine brain tubulin, Q6B856; test: MT pelleting assay (western blot densitometry); conditions: chain shown with the change, 5 mM AMPPNP, read off a plot
[2] = target: T1, taxol-stabilized microtubules …; test: MT pelleting assay (western blot densitometry), fitted curve; conditions: chain shown with the change; 5 mM AMPPNP; fitted curve read at 8 µM tubulin; parent: est. 0.95; read off a plot

T1 sequence (chain, as listed by the source, chain 1 of 2): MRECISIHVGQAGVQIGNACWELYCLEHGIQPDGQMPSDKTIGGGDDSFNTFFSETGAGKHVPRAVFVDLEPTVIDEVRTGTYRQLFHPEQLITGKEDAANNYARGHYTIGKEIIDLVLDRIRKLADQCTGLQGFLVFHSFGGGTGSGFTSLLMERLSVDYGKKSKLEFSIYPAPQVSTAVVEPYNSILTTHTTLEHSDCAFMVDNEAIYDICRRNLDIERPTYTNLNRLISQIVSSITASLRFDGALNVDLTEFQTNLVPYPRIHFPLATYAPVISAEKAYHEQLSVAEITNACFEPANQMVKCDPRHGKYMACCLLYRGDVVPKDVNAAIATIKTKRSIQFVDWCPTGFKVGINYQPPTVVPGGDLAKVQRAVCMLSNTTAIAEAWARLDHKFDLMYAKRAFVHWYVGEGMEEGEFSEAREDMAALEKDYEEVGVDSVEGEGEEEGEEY
T1 sequence (Q6B856 whole entry, chain 2 of 2): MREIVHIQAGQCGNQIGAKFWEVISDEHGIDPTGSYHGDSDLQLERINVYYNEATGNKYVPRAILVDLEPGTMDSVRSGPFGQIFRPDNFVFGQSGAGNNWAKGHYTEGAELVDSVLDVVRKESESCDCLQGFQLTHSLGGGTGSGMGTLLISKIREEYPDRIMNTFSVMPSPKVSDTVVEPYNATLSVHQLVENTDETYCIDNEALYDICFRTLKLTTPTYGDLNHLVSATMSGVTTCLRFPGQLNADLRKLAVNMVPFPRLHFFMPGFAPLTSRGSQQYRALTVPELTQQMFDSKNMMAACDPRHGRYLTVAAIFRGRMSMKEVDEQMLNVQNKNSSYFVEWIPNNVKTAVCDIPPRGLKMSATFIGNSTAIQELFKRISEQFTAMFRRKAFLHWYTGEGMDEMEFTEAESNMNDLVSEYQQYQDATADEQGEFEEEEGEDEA

response (fraction Kif5A bound) ([1]; 2 µM tubulin): 0.9 | response (fraction Kif5A bound) ([1]; 4 µM tubulin): 0.91 | response (fraction Kif5A bound) ([1]; 8 µM tubulin): 0.95 | response (fraction Kif5A bound) [2]: 1
B3: human Kif5A, first 560 amino acids, wild type, fused to EGFP and a C-terminal 6xHIS tag, Q12840 S202N (protein)
chain: MAETNNECSIKVLCRFRPLNQAEILRGDKFIPIFQGDDSVVIGGKPYVFDRVFPPNTTQEQVYHACAMQIVKDVLAGYNGTIFAYGQTSSGKTHTMEGKLHDPQLMGIIPRIARDIFNHIYSMDENLEFHIKVSYFEIYLDKIRDLLDVTKTNLSVHEDKNRVPFVKGCTERFVSSPEEILDVIDEGKSNRHVAVTNMNEHNSRSHSIFLINIKQENMETEQKLSGKLYLVDLAGSEKVSKTGAEGAVLDEAKNINKSLSALGNVISALAEGTKSYVPYRDSKMTRILQDSLGGNCRTTMFICCSPSSYNDAETKSTLMFGQRAKTIKNTASVNLELTAEQWKKKYEKEKEKTKAQKETIAKLEAELSRWRNGENVPETERLAGEEAALGAELCEETPVNDNSSIVVRIAPEERQKYEEEIRRLYKQLDDKDDEINQQSQLIEKLKQQMLDQEELLVSTRGDNEKVQRELSHLQSENDAAKDEVKEVLQALEELAVNYDQKSQEVEEKSQQNQLLVDELSQKVATMLSLESELQRLQEVSGHQRKRIAEVLNGLMKDLSE

response (fraction Kif5A bound) ([1]; 2 µM tubulin): 0.8 | response (fraction Kif5A bound) ([1]; 4 µM tubulin): 0.73 | response (fraction Kif5A bound) ([1]; 8 µM tubulin): 0.76 | response (fraction Kif5A bound) [2]: 0.79
B5: human Kif5A, first 560 amino acids, wild type, fused to EGFP and a C-terminal 6xHIS tag, Q12840 R204Q (protein)
chain: B3 chain with N202S, R204Q

More lines, now with the values behind:

B1: human Kif5A, first 560 amino acids, wild type, fused to EGFP and a C-terminal 6xHIS tag, Q12840 S203C (protein)
chain: B3 chain with N202S, S203C
response (fraction Kif5A bound) ([1]; 2 µM tubulin): 0.7 | response (fraction Kif5A bound) ([1]; 4 µM tubulin): 0.83 | response (fraction Kif5A bound) ([1]; 8 µM tubulin): 0.8 | response (fraction Kif5A bound) [2]: 0.86

B2: human Kif5A, first 560 amino acids, wild type, fused to EGFP and a C-terminal 6xHIS tag, Q12840 E251K (protein)
chain: B3 chain with N202S, E251K
response (fraction Kif5A bound) ([1]; 2 µM tubulin): 0.56 | response (fraction Kif5A bound) ([1]; 4 µM tubulin): 0.63 | response (fraction Kif5A bound) ([1]; 8 µM tubulin): 0.73 | response (fraction Kif5A bound) [2]: 0.74

B4: human Kif5A, first 560 amino acids, wild type, fused to EGFP and a C-terminal 6xHIS tag, Q12840 M198T (protein)
chain: B3 chain with M198T, N202S
response (fraction Kif5A bound) ([1]; 2 µM tubulin): 0.94 | response (fraction Kif5A bound) ([1]; 4 µM tubulin): 0.95 | response (fraction Kif5A bound) ([1]; 8 µM tubulin): 0.94 | response (fraction Kif5A bound) [2]: 1

B6: human Kif5A, first 560 amino acids, wild type, fused to EGFP and a C-terminal 6xHIS tag, Q12840 R204W (protein)
chain: B3 chain with N202S, R204W
response (fraction Kif5A bound) ([1]; 2 µM tubulin): 0.44 | response (fraction Kif5A bound) ([1]; 4 µM tubulin): 0.41 | response (fraction Kif5A bound) ([1]; 8 µM tubulin): 0.36 | response (fraction Kif5A bound) [2]: 0.47
